Test [1] concerns the target CD8 on human peripheral blood mononuclear cells (PBMCs) (human) (UniProt P01732). Briefly: flow cytometry, human PBMCs, co-stained with CD3-APC mAb. A general note: In flow cytometry, cells or beads pass a laser one at a time.
The target in test [2] is His-tagged CD8α human recombinant protein (TP760215, Origene) (human) (UniProt P01732). Briefly: sandwich ELISA; biotinylated ligand on NeutrAvidin plate, His-tagged CD8α titrated, anti-His-AP detection.
Chain of His-tagged CD8α human recombinant protein (TP760215, Origene) (human) (P01732 22-182 limits assumed): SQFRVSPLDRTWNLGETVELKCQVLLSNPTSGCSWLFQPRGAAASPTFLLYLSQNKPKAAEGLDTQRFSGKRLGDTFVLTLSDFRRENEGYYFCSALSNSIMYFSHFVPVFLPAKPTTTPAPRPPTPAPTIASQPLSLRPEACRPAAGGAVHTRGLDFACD

Chain of CD8 on human peripheral blood mononuclear cells (PBMCs) (human) (P01732 22-235): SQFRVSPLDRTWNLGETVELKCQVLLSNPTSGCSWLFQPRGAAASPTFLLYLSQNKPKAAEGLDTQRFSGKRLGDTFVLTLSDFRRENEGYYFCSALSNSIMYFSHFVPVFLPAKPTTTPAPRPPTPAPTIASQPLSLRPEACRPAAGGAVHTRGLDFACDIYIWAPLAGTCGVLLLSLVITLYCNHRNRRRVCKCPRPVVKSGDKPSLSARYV

In test [1], “human CD8-FITC mAb (clone: RPA-T8) (#561947, BD Biosciences) (antibody)” displayed a % of cells detected (Q2) of 11.2% and a % of cells detected (Q4) of 2.1%.

Take biotin-PEG3-Cy(slrfG) (peptide): in test [2], the EC50 is 0.02 µM.

As for biotin-PEG3-Cy(yGGvr) (peptide), the EC50 in test [2] was 0.01 µM.

A word on the EC50: it is the concentration needed to bring the measured effect to its halfway point.

(Values after US20170319722A1.)
